Test results published in the supplement of paper PMC12636428.

Test system: Saccharomyces cerevisiae
Test: transcriptional activation domain activity (GFP:mCherry ratio, weighted mean of sorted bins, harmonized to initial dataset scale) (arbitrary fluorescence ratio units); higher = stronger transcriptional activation
Conditions: beta-estradiol 1 µM; induction time 4 h
Experimental: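 53-aa protein tiles (fungal proteins plus yeast TF control tiles) fused C-terminally to a DBD-estrogen-binding domain-mCherry synthetic TF, integrated in S. cerevisiae (URA3 locus) with a GFP reporter. Cells were induced with 1 uM beta-estradiol for 4 h at 30 C, FACS-sorted into 8 bins by GFP:mCherry ratio and barcodes sequenced. Activity is the read-weighted mean bin fluorescence (GFP:mCherry), averaged over barcodes (median 12); tiles under 50 reads were discarded. New active-learning values were harmonized by linear fit onto the scale of the initial (Hummel et al.) dataset. The assay saturates at low and high signal.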

| Sequence | transcriptional activation domain activity |
| --- | --- |
| DSKDKREKFRSRMVVLKSRLLFGVCDPYGVLEEGEVYVRVSVPRMGASTLKNT | 67500 |
| DSKGFEARRANMGNDVELTGARAIVLVNIWNVQTSCGLSVPLVVQSNSGTECG | 59400 |
| DSKLLPGFASYLSFCLFLYAITTVLPFFSLDCPYSTPLTPLMCRLYHFFMFGI | 66800 |
| DSKLRATALQVRRGGNCPNTVEVLQQLLLSGGGLDTSSSQTQQVSAADAAAVT | 33300 |
| DSKSDATPAWSDLKTKAGKERKRLPLACIVCRRKKIRCSGEKPACKHCLRARI | 41900 |
| DSLFFDHDLLSSSITNTNNGQGSNNGRQASKDDTLNLLDTTVNSNNNHNANNE | 32900 |
| DSLSNSNDVLNNTPNSSTSMDWLDNVIYTNRFVSGDDGSNSKTKNLDSNMFSN | 66900 |
| DSNILAILPAVVYLQHSCYCLYFFYLYCFCLFLMSIDVAILYCLLYKIIPLFH | 43400 |
| DSNYLAFLKFDDLENEKFHSSASSISSPSYSSPSFSSYRNRKKSEFMDDESCT | 73200 |
| DSPVDRAMNTPLQQQEGLKAELPHDFLFQHGTDDTMYNLTDDLSSSLSSSINS | 68200 |
| DSRKEERRPSGHERKDRERGRDSRKDRDRKRKERLDDTASDDKKDRKRDRGEK | 24700 |
| DSRRKRNTSSEEDEPKKTDREERRREYRSRDHNVADEERSNKHRSSRRKHRSA | 7300 |
| DSSAETGPGEDPSLVLPGLHMTLMRRFALKSKDRDRVSVEILGLLIRVLGVLG | 59800 |
| DSSEEDSEDEKPKAVQVKAIAKASSSSDSDDSSSEDDAPSKSVVAAAKKVSPS | 22200 |
| DSSEVQRKKRRDSRKSKKESKSSSRRKDRSKDRSGRSKQRESKKKDRRRARSE | < 6570 |
| DSSFDLNMNLDLNLNLDSNFNIALNRSDSSGSTMNLDYKLPESANNYTYSSGS | 90700 |
| DSSSSNDSDSGADDGAARPVRRSRARRKHKHNHEHDGNGGEGDAKDKARKPSP | 28400 |
| DTCTKVHGRVFSREVHHIRFNRITTSTIVALRVASEVGAIWMLPMIYYTIVCW | 24200 |
| DTIYIFHALLVVFWVSLMQEPAFPYKLLIPILYITILLIPFTSQVFLPAVPVL | 49400 |
| DTKLIAISDANELKGFDSQCIEEWDPILFSAAEIWPTKGKPIALVEMDPIDFD | 145000 |
| DTMIRLFVGWLEEDPSSDRVLPRVHLGEIGIPVKLDLSSPSAVLVVSRLLCSL | 74100 |
| DTNLPTNPEAIQLHGDEDIKAWLVLAKNLAINPSRILVVLHRAVRGTQTPALG | 40400 |
| DTPFALHTLLIMHGHILLCENAKVSLDSSDTLNIFVPLVTVLINRLTNRKEYS | 32800 |
| DTSSFFLRFFHFPFLQLFLLQCLISPCLYVRTCPISLLLLWWCFYSVFFCVRG | 50300 |

| Sequence | transcriptional activation domain activity |
| --- | --- |
| DTWGMEMEMEMEFLFLFLFVIFFLPCLSFFFSYFFSSNLLFFFFVFVMSFSFM | 73000 |
| DVDEAGEARGDSSSLCLSFLSLLLFFLFFLFFLLFRFLHLLHFFLFLLVFHFF | 47600 |
| DVDVDVGVDGRGRGFEAGDGREDGKGEEEGGRRLKRAGTDGEAVGGARAREVW | 32500 |
| DVDWWNVSSSETTFDAASLPLDVWDPLLPHDTGLSEIEVTTCWLDPWIIPFIT | 132000 |
| DVEMLKGLALRNPLEEGEDEAASLSQYAVNRQILLTYVILKLKLIRGKCILFV | 35000 |
| DVGNSVWHVDCCSPYVNGGSGWGFFNAILGWTNSATYGSVISYNLYWLFVIAV | 51100 |
| DVKISNDFFDNGDNLYGNDEEVLFYEDNYNPKMQWSLQDNSAAINNEDARAIF | 107000 |
| DVKKVYFASRFPGNWLRDYSQAMDIAGLSKLSSDTLVLVVAVLGFMTFGFATE | 38900 |
| DVNTGATSAPLSVGDVRHVAAPLEESGGCTLAMLVDDDGVMRIVVLRVTVDPV | 35300 |
| DVPEEKKAESEKVDSDQEKAESEAKKIDETPAKETADKPEEKSEDKAEDKAAE | 26100 |
| DVVDHSGDLFIRCNEIFGRQCIRNYIPSDPIWLIPLLGLLHRRLMYKVRLIYP | 71700 |
| DVYNEGHICNHSDDEGRYAYKYQPTMILYAIRALLRSLSVLIGAEEELGNAVA | 36400 |
| DWESIGAASLRNNSLAPNIDSVASSTNGVVSPKPTNPSFTNSQNGDIEPPLQH | 46900 |
| DWYFDLPLWVFVCFFLFVFLTLMTFRTPSLTRYYCTVVYYLLGKWVGNCIVYT | 18200 |
| DYCSFNSFPPSHFMSLYKNLGSFFLLSSFPPPPFFFVLLYLPASCLCFFCLFF | 54500 |
| DYLWADMDSFFPFVRLLPTPVQEIWDMTFDIALLPLMECPPPEEWTLFDTYAY | 52400 |
| DYSIAQFRFLLKLLLVHGRWNYMRACKYTLGTFWKEMLFYLTQALYQRWNGYT | 64700 |
| DYSIAQFRFLQRLLLVHGHWNYNRIAQYALATFWKEMLFYCIQLLYQRWNGYT | 37500 |
| DYTNWLGRNIVAWASKEPSTDDVKLCSGLLVKGLRLGHSDALVKLLVSMLFLT | 49000 |
| EAAAAAKRKRRKATSDSPEQARRGHVARKTAVACNFCRGRKLRCNGAKPSCSN | 22800 |
| EAAAGSVKNEAGESSASSAARGGRGGRRGGGGPGSRGGKVGRGRGGRAGASQE | 32500 |
| EAAARRERKQAAEKGENRERKRRTQGLQNNTARSQKDGDGKGEGGKDNKKDGK | 29200 |
| EAAHVNGLGIADLDVLLGLNGRSSDVDMTTTLPSLKPPLQNGEIKADSIDNLD | 53300 |
| EAANGDDAEPAAEQNGADIQTAAASPAESTKKDNKKKDKKRSREEEGANGAAA | 39500 |

| Sequence | transcriptional activation domain activity |
| --- | --- |
| EAAPKEDAAPEPAPEKESKPEKAPEPKAEASKPAAPPASEKKDLKTAPKEETK | 28500 |
| EAARKETDAEGVRKTKVKKSRKRKAPEDGLEADEEGAARRTARARKTPAEAEA | 28700 |
| EAATKVDAAADGTDEVADRIADLDVSTSSNSKKKKKNSKSKKKAAKEEPVRLR | 47300 |
| EAAVTSDDEAGPAKKAKRGSVFEKFGGKFKSHKAAEKEPEAKEEAKEEEAKPA | 14000 |
| EADEEAAKAEHVHAPGEGGEGEGGGGPRRLEGKEGEREQKEIERQKKAEKDEK | 44400 |
| EADGERRSNGGSAGPRAGRRGGRDRDDRKGKPSKDSKARGEKSSEEKIGSNKE | 47500 |
| EADGEVKTKSKKSKKQKGDAADSAEADDAKSAVPEGTDATKKKKKRKTQEPSD | 30600 |
| EAEAEAAPEAEAAKPKNRGGRPKKAVLPAAAAPAPKEKEEPKPKATAGRKRKA | 33400 |
| EAEAGADGSEGGEDDGREKEEVEEEGGEEEGGEEEGREDDDTKAEAEAEELSE | 26600 |
| EAEARGSGGGGERQRDCERQREPRATRAGGDAGARDGAGARGLARGAAGVAAM | 51700 |
| EAEDAPAAAVSIEEDAPVKEVEAPAPEPEVLEPEKPKEPSPTPVAAATKPAAP | 49100 |
| EAEDDEEDADAAGGKKPKAKKRKRESTVKESAEEKKGKRKRASEQLAKQRRGK | 22600 |
| EAEDGAEKPKRGRKRKEPPAEAEANGDEPAPAAEEEEAPPAKKTKPSSSPLAK | 27800 |
| EAEDTAAARLKRAKSERMRLRTRVVQAMWAEASEEERGAAEAEVAREKEAIRA | 30400 |
| EAEEEESEKKDKKRKKDKEGKKKKKSKSSEEKETEEEKVEEKKSEESSESKKD | < 6570 |
| EAEEGGAGKRKAGSPEDTEQQQESSEKSTESNHKPATKRSTVSERPSKGKRRS | 11500 |
| EAEGEAGAEEPAAEGEAGAEGEAGGEGELEAEPAAEGEGEAEPEAGAETEAAG | 13200 |
| EAEIGVAAEDKISPQKARRKAKVEKEDGKAEEGAEGQKTTKRRRKTKEEKEEE | 14900 |
| EAEQEVQQKPAKGKKALAAAKSSAEDAEPEAAPAPKKSALKDGEASAAAPAPS | 21800 |
| EAERERLEREVEAENVRKAEEERKEKERLVKEARERAAREAAEREAAAAAAAA | 52700 |
| EAEVTATGEKSSPARVVVLRARAADAGKLVSIAEIAKREIEKGTGGQGGGSGG | 18100 |
| EAGAEEAAAGAGGRQEAASVEEAAREAARRRQQAEAGRGRRRRQPAGAEEAAE | 33300 |
| EAGNERRESSRRHDDTERRERRRHRSHDRGHDRERRHRRHRRSRSRDRDGGRE | 34300 |
